Data taken from patent US20230111279A1 (Takeda / Millennium, published 2023).
Positions count from the first letter of the chain named.

T1: Clec12A-His protein, Clec12A (H65-A265-WT-EOm-NIgKss-6His) (human, UniProt Q5QGZ9 65-265)
T1 construct: The protein was biotinylated for the ELISA binning assay; also called soluble Clec12A-His; soluble Clec12A
T1 sequence: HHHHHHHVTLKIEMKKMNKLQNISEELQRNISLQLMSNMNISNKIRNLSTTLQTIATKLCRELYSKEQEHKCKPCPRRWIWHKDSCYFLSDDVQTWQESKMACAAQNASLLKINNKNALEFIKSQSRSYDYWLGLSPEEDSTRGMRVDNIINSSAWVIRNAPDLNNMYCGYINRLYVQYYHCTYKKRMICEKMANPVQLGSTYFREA

B1: anti-Clec12A antibody D (antibody, V domains shown)
VH: QLQLQESGPGLVKPSETLSLTCTVSGGSISSSTYYWGWIRQPPRKGLEWIGSTHYRGSTYYNPSLKSRVTISVDTSKNQFSLKVSSVTAADTAVYYCARELTGEVFDYWGQGTLVTVSS
VL: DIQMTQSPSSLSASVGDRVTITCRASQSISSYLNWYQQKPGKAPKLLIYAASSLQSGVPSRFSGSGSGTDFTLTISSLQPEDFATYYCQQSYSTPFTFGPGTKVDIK
notes: Hybridoma-produced IgG; also called Clone D; anti-Clec12A Clone D antibody
B2: anti-Clec12A antibody B (antibody, V domains shown)
VH: QVQLVESGGGVVQPGRSLRLSCAASGFTFSSYGMHWVRQAPGKGLEWVAVISYDGSDKYYVDSVKGRFTISRDNSKNTLYLHMNSLRAEDTAVYYCARDKGYYFDYWGQGTLVTVSS
VL: EIVMTQSPATLSLSPGERATLSCRASQSVGNRYLSWYQQKPGQAPRLLIYGASTRATGIPARFSGSGSGTDFTLTISSLQPEDFAVYYCQQDYNLPLTFGGGTKVEIK
notes: Hybridoma-produced IgG; also called Clone B
B3: anti-Clec12A antibody C (antibody, V domains shown)
VH: B2 VH with Y60S, V61A, T69N, H82Q, K100G, G101S, Y102R
VL: B2 VL with V3F, G30H, N31S, R32K, R46S, L97I, G101Q, K104R, V105L
notes: Hybridoma-produced IgG; also called Clone C
B4: anti-Clec12A antibody A (antibody, V domains shown)
VH: QVQLQESGPGLVKPSETLSLTCTVSGGSISTYYWSWIRQPPGKGLEWIGYIYYSGSTKYNPSLKSRVTISVDTSKNLFSLKLSSVTAADTAVYYCAREDYYGSGSPFDYWGQGTLVTVSS
VL: IQMTQSPSSLSASVGDRVTITCRASQGIRYDLGWYQQKPGKAPKLLIYAASSLQSGVPSRFSGSGSGTDFTLTISSLQPEDFATYYCLQDYNFPRTFGQGTKVEIK
notes: Described as a human anti-Clec12A antibody derived from and produced in hybridoma, captured on anti-mouse IgG sensor chips; also called Clone A

The binders below were run against T1, Clec12A-His protein, Clec12A … (assay: Biacore SPR; antibody captured on anti-mouse IgG chip, soluble Clec12A-His at 100 nM in solution; monovalent).
Experimental: (§1) Briefly, […] anti-Clec12A antibodies derived from and produced in hybridoma were tested for their binding affinity on soluble Clec12A in a Biacore SPR system. Briefly, the antibodies were immobilized on anti-mouse IgG sensor chips and bound to soluble Clec12A-His protein (Clec12A extracellular domains fused to 6×His tag (SEQ ID NO: 79)) at 100 nM in the solution phase. The resulting Biacore traces are as shown in […]

| Kd | Binder |
| --- | --- |
| 1.99 nM | B1 |
| 3.78 nM | B2 |
| < 0.0549 nM | B3 |
| 2.87 nM | B4 |

These binders were tested against T1, Clec12A-His protein, Clec12A … (assay: Biacore SPR; antibody captured on anti-mouse IgG chip, soluble Clec12A-His at 100 nM in solution).
Experimental: as §1

| koff | kon | Binder |
| --- | --- | --- |
| 0.000666 s⁻¹ | 176000 M⁻¹ s⁻¹ | B2 |
| < 1e-05 s⁻¹ | 182000 M⁻¹ s⁻¹ | B3 |
| 0.0132 s⁻¹ | 4.62e+06 M⁻¹ s⁻¹ | B4 |
